Measurements reported in patent US20150284723A1 (MEDICAL DIAGNOSTIC LABORATORIES, published 2015).
Substitutions are numbered along the chain they refer to.

T1: FLAG-tagged PME-1 (wild-type protein methylesterase 1) (human, UniProt Q9Y570 1-386)
T1 construct: Expressed in stably transfected ECC-1 cells and pulled down with FLAG resin; also called FLAG-PME-1; not shown: FLAG tag
T1 sequence (looked up): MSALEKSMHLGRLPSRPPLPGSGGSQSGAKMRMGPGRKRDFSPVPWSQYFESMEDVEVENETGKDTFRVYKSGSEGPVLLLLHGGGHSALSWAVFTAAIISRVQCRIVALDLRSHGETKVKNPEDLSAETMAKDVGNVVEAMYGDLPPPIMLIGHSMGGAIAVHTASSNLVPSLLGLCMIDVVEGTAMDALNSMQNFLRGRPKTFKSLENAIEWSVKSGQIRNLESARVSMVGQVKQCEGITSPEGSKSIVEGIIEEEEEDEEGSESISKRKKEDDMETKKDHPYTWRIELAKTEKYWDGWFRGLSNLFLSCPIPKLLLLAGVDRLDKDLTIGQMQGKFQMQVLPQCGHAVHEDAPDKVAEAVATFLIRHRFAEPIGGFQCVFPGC

T2: FLAG-tagged PME-1 S156A (catalytically inactive mutant) (human, UniProt Q9Y570 1-386)
T2 construct: Expressed in stably transfected ECC-1 cells and pulled down with FLAG resin; also called FLAG-PME-1 S156A; FLAG PME-1 S156A; not shown: FLAG tag
T2 sequence (looked up): T1 sequence (looked up) with S156A

B1: Ppp6c, the catalytic subunit of PP6 (endogenous) (enzyme)
chain: MAPLDLDKYVEIARLCKYLPENDLKRLCDYVCDLLLEESNVQPVSTPVTVCGDIHGQFYDLCELFRTGGQVPDTNYIFMGDFVDRGYYSLETFTYLLALKAKWPDRITLLRGNHESRQITQVYGFYDECQTKYGNANAWRYCTKVFDMLTVAALIDEQILCVHGGLSPDIKTLDQIRTIERNQEIPHKGAFCDLVWSDPEDVDTWAISPRGAGWLFGAKVTNEFVHINNLKLICRAHQLVHEGYKFMFDEKLVTVWSAPNYCYRCGNIASIMVFKDVNTREPKLFRAVPDSERVIPPRTTTPYFL
notes: Endogenous protein in the lysate of the human ECC-1 cell line; also called phosphatase 6

Experiments:
[1] = biological target: protein phosphatase 2A (PP2A); assay: cell-based or functional assay
[2] = biological target: T1, FLAG-tagged PME-1 (wild-type protein …); assay: FLAG co-immunoprecipitation from ECC-1 lysate, Western blot with anti-Ppp6c
From the text: (§1) Cells (post-transfection) were collected and cellular protein was extracted. Input depicts the relative expression of each protein in total cell lysate, whereas the elution depicts proteins that were immunoprecipitated with FLAG resin.
(§2) There are other protein phosphatases in the same family as PP2A in cells that share some similarity to PP2A. In this experiment, we examined if PME-1 binding to Ppp2ca is specific over other phosphatases. We chose to examine phosphatase 4 (PP4) and phosphatase 6 (PP6) since the C-terminal tail of the catalytic subunit of PP2A (i.e., Ppp2ca) is TPDYFL (amino acids 304-309 of SEQ ID NO: 12) (the substrate for PME-1 demethylation) is similar to that of protein phosphatase 4 (i.e., Ppp4c) (VADYFL) (amino acids 302-307 of SEQ ID NO: 13) and phosphatase 6 (i.e., Ppp6c), (TTPYFL) (amino acids 300-305 of SEQ ID NO: 14), respectively. Specifically, we examined if PME-1 may bind and demethylate PP4 or PP6.

[3] = biological target: T2, FLAG-tagged PME-1 S156A (catalytically …); assay: as above
From the text: as §1, §2

Molecule	PP2A phosphatase activity (RL95-2 cells over-expressing PME-1) [1] [% decrease]	PP2A phosphatase activity (RL95-2 cells, shRNA against PPME1) (fold increase) [1]	binding result [2]	binding result [3]
PME-1 protein (endogenous, over-expressed or depleted in cells) (from UniProt Q9Y570 2-386) (enzyme)	90	30		
B1			no binding	no binding
